Measured values: PMC3335792, “M. tuberculosis Sliding β-Clamp Does Not Interact Directly with the NAD^+ -Dependent DNA Ligase” (PLoS ONE, 2012)

T1: Mtbβ-clamp labeled with OregonGreen488 maleimide (Mtbβ-clamp^OG) (M. tuberculosis, UniProt P9WNU1 1-402, OregonGreen488 maleimide label (residue not stated))
T1 construct: also called Mtbβ^OG-Clamp
T1 sequence: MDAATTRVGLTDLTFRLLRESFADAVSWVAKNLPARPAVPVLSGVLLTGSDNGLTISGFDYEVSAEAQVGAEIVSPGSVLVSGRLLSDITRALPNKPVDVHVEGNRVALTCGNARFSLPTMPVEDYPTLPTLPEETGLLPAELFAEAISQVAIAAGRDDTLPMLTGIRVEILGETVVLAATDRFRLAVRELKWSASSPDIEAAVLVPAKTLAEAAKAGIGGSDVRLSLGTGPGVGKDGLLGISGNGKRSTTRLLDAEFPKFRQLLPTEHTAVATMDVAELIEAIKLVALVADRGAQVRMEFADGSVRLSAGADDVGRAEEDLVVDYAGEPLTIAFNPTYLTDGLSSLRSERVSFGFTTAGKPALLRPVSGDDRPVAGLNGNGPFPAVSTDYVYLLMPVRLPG

B1: M. tuberculosis sliding β-clamp (Mtbβ-clamp, Rv0002) (natural protein)
chain: T1 sequence
notes: also called beta clamp; Native Mtbβ-Clamp
B2: γ-subunit of the DNA clamp loader complex of M. tuberculosis (Rv3721c) (natural protein)
chain: MALYRKYRPASFAEVVGQEHVTAPLSVALDAGRINHAYLFSGPRGCGKTSSARILARSLNCAQGPTANPCGVCESCVSLAPNAPGSIDVVELDAASHGGVDDTRELRDRAFYAPVQSRYRVFIVDEAHMVTTAGFNALLKIVEEPPEHLIFIFATTEPEKVLPTIRSRTHHYPFRLLPPRTMRALLARICEQEGVVVDDAVYPLVIRAGGGSPRDTLSVLDQLLAGAADTHVTYTRALGLLGVTDVALIDDAVDALAACDAAALFGAIESVIDGGHDPRRFATDLLERFRDLIVLQSVPDAASRGVVDAPEDALDRMREQAARIGRATLTRYAEVVQAGLGEMRGATAPRLLLEVVCARLLLPSASDAESALLQRVERIETRLDMSIPAPQAVPRPSAAA
notes: γ-subunit of the DNA clamp loader (DNA polymerase III subunit gamma/tau) of M. tuberculosis, Rv3721c; also called γ-clamp loader; Mtb-γ-subunit

How the values were obtained:
[1] = target: the molecule itself; assay: crystal structure; Mtbβ-Clamp, hanging drop, 9% isopropanol, 12% PEG4K, 0.1 M Na HEPES pH 7.0, 295 K; space group C222_(1); two chains in the asymmetric unit
[2] = target: T1, Mtbβ-clamp labeled with OregonGreen488 …; assay: other fluorescence titration; OregonGreen488-labeled β-clamp (50 or 100 nM in the methods, 90 nM in the legend) titrated with the partner protein; 20 mM Tris-Cl pH 7.5, 8 mM MgCl2, 1 mM DTT, 0.2 mM EDTA, 50 mM NaCl, 0.5 mM ATP, 22°C; emission at 510 nm; apparent Kd; details: both partners purified

| Binder | binding result [1] | Kd [2] |
| --- | --- | --- |
| B1 | binds |  |
| B2 |  | 23.8 nM |
